According to patent US6682736:

B1: 2.1.3 (antibody, human IgG4, V domains shown)
VH: SGPGLVKPSQILSLTCTVSGGSISSGGHYWSWIRQHPGKGLEWIGYIYYIGNTYYNPSLKSRVTISVDTSKNQFSLKLSSVTAADTAVYYCARDSGDYYGIDVWGQGTTVTVSS
VL: SPDFQSVTPKEKVTITCRASQSIGSSLHWYQQKPDQSPKLLIKYASQSFSGVPSRFSGSGSGTDFTLTINSLEAEDAATYYCHQSSSLPLTFGGGTKVEIKR
B2: 3.1.1 (antibody, V domains shown)
VH: GVVQPGRSLRLSCAASGFTFSSYGMHWVRQAPGKGLEWVAVIWYDGSNKYYADSVKGRFTISRDNSKNTLYLQMNSLRAEDTAVYYCARGARIITPCMDVWGQGTTVTVSS
VL: QSPSSLSASVGDRVTITCRASQSINTYLIWYQQKPGKAPNFLISATSILQSGVPSRFRGSGSGTNFTLTINSLHPEDFATYYCQQSYSTPFTFGPGTKVDIKR
notes: also called CT-3.1.1
B3: 4.10.2 (antibody, human IgG2, V domains shown)
VH: GVVQPGRSLRLSCVASGFIFSSHGIHWVRQAPGKGLEWVAVIWYDGRNKDYADSVKGRFTISRDNSKNTLYLQMNSLRAEDTAVYYCARVAPLGPLDYWGQGTLVTVSS
VL: SPGTLSLSPGERATLSCRASQSISSNFLAWYQQKPGQAPRLLIYRPSSRATGIPDSFSGSGSGTDFTLTISRLEPEDFALYYCQQYGTSPFTFGPGTKVDIKR
notes: Fully human IgG2 kappa (hybridoma); also called CT-4.10.2

Legend:
[1] = molecular target: T1, CTLA-4-IgG1 fusion protein (human); test: BIAcore; CTLA-4-Ig on chip, 504.5 RU
T1 construct: Mature extracellular domain of human CTLA-4 fused to human IgG1 constant domains, no hinge, covalent dimer through cysteine 120; The oncostatin M signal peptide is cleaved; also called OM-CTLA4-IgG1 Fusion Protein; CTLA-4-Ig fusion protein

[2] = molecular target: T1, CTLA-4-IgG1 fusion protein; test: BIAcore; CTLA-4-Ig on chip, 397.8 RU
[3] = molecular target: T1, CTLA-4-IgG1 fusion protein; test: BIAcore; CTLA-4-Ig on chip, 878.7 RU
[4] = molecular target: T2, CTLA-4-Ig(G4) (UniProt P16410 37-161, limits assumed); test: competition ELISA: CTLA-4-Ig(G4) to coated B7.2-Ig(G1); n = 3
T2 construct: Bought (Repligen, Inc.); not shown: IgG4 portion of the bought fusion protein

[5] = molecular target: T2, CTLA-4-Ig(G4); test: competition ELISA: CTLA-4-Ig(G4) to coated B7.1-Ig(G1); n = 2
[6] = molecular target: T3, CTLA-4-Ig(G1) (UniProt P16410 37-161, limits assumed); test: IGEN ECL bead assay, antibody 1 µg/ml; CTLA-4-Ig(G1) over CD28-Ig(G1); n = 2
T3 construct: also called CTLA4 (IGEN assay); not shown: IgG1 portion

[7] = molecular target: T1, CTLA-4-IgG1 fusion protein; test: BIAcore; CTLA-4-Ig on chip, 457.2 RU
[8] = molecular target: T1, CTLA-4-IgG1 fusion protein; test: selectivity ELISA, antibody 1 µg/ml; CTLA-4/Ig over CD28/Ig; n = 3
[9] = molecular target: T1, CTLA-4-IgG1 fusion protein; test: selectivity ELISA, antibody 1 µg/ml; CTLA-4/Ig over B7.2/Ig; n = 3
[10] = molecular target: T1, CTLA-4-IgG1 fusion protein; test: selectivity ELISA, antibody 1 µg/ml; CTLA-4/Ig over CD44/Ig; n = 3

T1 sequence (chain, as listed by the source): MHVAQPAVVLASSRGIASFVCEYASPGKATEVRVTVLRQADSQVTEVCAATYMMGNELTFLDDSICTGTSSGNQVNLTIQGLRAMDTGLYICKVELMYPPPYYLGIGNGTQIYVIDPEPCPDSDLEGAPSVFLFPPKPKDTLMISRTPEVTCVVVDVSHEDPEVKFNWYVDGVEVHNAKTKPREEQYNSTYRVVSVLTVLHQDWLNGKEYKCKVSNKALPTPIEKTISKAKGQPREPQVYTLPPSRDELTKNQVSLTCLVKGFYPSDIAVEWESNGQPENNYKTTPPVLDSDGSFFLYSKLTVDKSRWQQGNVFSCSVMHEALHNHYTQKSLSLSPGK
T2 sequence (P16410 37-161 limits assumed): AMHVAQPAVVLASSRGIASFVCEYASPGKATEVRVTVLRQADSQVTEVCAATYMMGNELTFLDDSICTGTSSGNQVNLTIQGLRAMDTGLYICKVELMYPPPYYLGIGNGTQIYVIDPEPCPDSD
T3 sequence (P16410 37-161 limits assumed): as above

| Binder | Ka [1] | Kd [1] | koff [1] | kon [1] | Ka [2] | Kd [2] | koff [2] | kon [2] | Ka [3] | Kd [3] | koff [3] | kon [3] | IC50 [4] | IC50 [5] | Ka [7] | Kd [7] | koff [7] | kon [7] | also measured |
| --- | --- | --- | --- | --- | --- | --- | --- | --- | --- | --- | --- | --- | --- | --- | --- | --- | --- | --- | --- |
| B1 | 9e+08 M⁻¹ | 1.12 nM | 0.00131 s⁻¹ | 1.17e+06 M⁻¹ s⁻¹ | 9e+08 M⁻¹ | 1.17 nM | 0.0013 s⁻¹ | 1.11e+06 M⁻¹ s⁻¹ | 1.3e+09 M⁻¹ | 0.772 nM | 0.000959 s⁻¹ | 1.24e+06 M⁻¹ s⁻¹ | – | – | – | – | – | – | – |
| B2 | 5.5e+09 M⁻¹ | 0.182 nM | 0.000172 s⁻¹ | 950000 M⁻¹ s⁻¹ | 4.4e+09 M⁻¹ | 0.228 nM | 0.000207 s⁻¹ | 910000 M⁻¹ s⁻¹ | 1.07e+10 M⁻¹ | 0.093 nM | 9.6e-05 s⁻¹ | 1.04e+06 M⁻¹ s⁻¹ | 0.45 nM | 0.63 nM | 4.4e+09 M⁻¹ | 0.227 nM | 0.000165 s⁻¹ | 730000 M⁻¹ s⁻¹ | selectivity ratio CTLA4/CD28 [6]: > 500 :1; selectivity ratio CTLA4/CD28 [8]: > 500 :1; selectivity ratio CTLA4/B7.2 [9]: > 500 :1; selectivity ratio CTLA4/CD44 [10]: > 500 :1 |
| B3 | 2.2e+09 M⁻¹ | 0.455 nM | 0.00043 s⁻¹ | 940000 M⁻¹ s⁻¹ | – | – | – | – | 3.9e+09 M⁻¹ | 0.254 nM | 0.000253 s⁻¹ | 1e+06 M⁻¹ s⁻¹ | 1.5 nM | 3.39 nM | 1.4e+09 M⁻¹ | 0.721 nM | 0.000505 s⁻¹ | 700000 M⁻¹ s⁻¹ | – |
